This is an account of results in paper PMC3706335, “Biophysical characterization and crystal structure of the Feline Immunodeficiency Virus p15 matrix protein” (Retrovirology, 2013).

Usually Kd stands for the constant that tells how readily two partners part at equilibrium. Lower therefore signals tighter binding. The stoichiometry N is a count of units in the complex or per binding partner.

Data set [1] deals with the molecule itself. The data set can be described thus: ITC; dilution experiment, dimer to monomers: p15 at 6 mg/ml (375 μM) in 50 mM MES pH 6 injected into buffer alone, 25°C, dimer dissociation model. Background: In ITC the heat of successive injections is recorded.
Data set [2] concerns the molecule itself. The data set is described as follows: SEC-MALS; 0.2 ml of his-tagged p15 at 6 mg/ml in 50 mM MES pH 6 on Superdex 200 10/30 in 50 mM MES pH 6. (SEC sorts molecules by how far they enter the pores of the column.)
Data set [3] concerns the molecule itself. The data set is described as follows: cross-linking; BS3, room temperature, SDS-PAGE; protein at 6 mg/ml in 50 mM MES pH 6.

B1: FIV p15 matrix protein, full-length, with C-terminal 6-His tag (natural protein)
chain: MGNGQGRDWKMAIKRCSNVAVGVGGKSKKFGEGNFRWAIRMANVSTGREPGDIPETLDQLRLVICDLQERREKFGSSKEIDMAIVTLKVFAVAGLLNMTVSTAAAAENMYSQMGLDTRPSMKEAGGKEEGPPQAY
notes: matrix protein p15, the N-terminal subunit of the Gag polyprotein of Feline Immunodeficiency Virus, Petaluma strain (plasmid FIV-34TF10); not myristoylated; also called p15-His; full-length p15; not shown: His6, C-terminal, kept
In turn, B1 returned a Kd in data set [1] of roughly 10 µM. In data set [2], the “stoichiometry N” value turned out to be 2.

B2: FIV p15-Δ120, C-terminal-truncated p15 (truncated after Ser120) with C-terminal 6-His tag (domain or fragment)
chain: MGNGQGRDWKMAIKRCSNVAVGVGGKSKKFGEGNFRWAIRMANVSTGREPGDIPETLDQLRLVICDLQERREKFGSSKEIDMAIVTLKVFAVAGLLNMTVSTAAAAENMYSQMGLDTRPS
notes: matrix protein p15 of the Gag polyprotein of Feline Immunodeficiency Virus, Petaluma strain, truncated after Ser120 (lacks the last 14 residues); residues 2 to 120 seen in the crystal; also called truncated FIV p15; not shown: His6, C-terminal, kept
As for B2, in data set [3], the binding result is on record as “binds”.

B3: FIV p15-Δ120-R40S (domain or fragment)
chain: MGNGQGRDWKMAIKRCSNVAVGVGGKSKKFGEGNFRWAISMANVSTGREPGDIPETLDQLRLVICDLQERREKFGSSKEIDMAIVTLKVFAVAGLLNMTVSTAAAAENMYSQMGLDTRPS
notes: matrix protein p15 of the Gag polyprotein of Feline Immunodeficiency Virus, truncated after Ser120 as m3, with Arg40 mutated to serine; Made from the truncated p15 construct
On to B3, for which the binding result in data set [3] is listed as “binds”.
